Results taken from paper PMC11885821, “Structures of complete HIV-1 TAR RNA portray a dynamic platform poised for protein binding and structural remodeling”.

Tests used:
[1] = molecular target: PKR (unphosphorylated) (Homo sapiens) (UniProt P19525); experiment: FP
[2] = molecular target: PKR dsRBMs (Homo sapiens) (UniProt P19525); experiment: FP
PKR dsRBMs [3] = molecular target: T1, PKR dsRBMs (Homo sapiens, UniProt P19525 9-167); experiment: FP; details: protein: recombinant, tags: tag cleaved by TEV, hairpin
PKR (unphosphorylated) [4] = molecular target: T2, PKR (unphosphorylated) (Homo sapiens, UniProt P19525 1-551); experiment: FP; details: protein: recombinant, tags: His tag (HisTrap purified), hairpin
Tat44-60 WT [5] = molecular target: T3, Tat44-60 WT (HIV-1, UniProt P04608); experiment: ITC; 1 mM Mg2+; details: label: 3' FAM in FP; none in ITC and SEC-MALS; hairpin, blunt 2 G-C end; bulges C5, A17, U23-C24-U25
T3 chain: GISYGRKKRRQRRRAHQ

PKR (unphosphorylated) [6] = molecular target: T2, PKR (unphosphorylated); experiment: FP; printed Kd 0.02 uM conflicts with log Ka and with text (3-fold weaker); details: protein: recombinant; tags: His tag (HisTrap purified); label: 3' FAM; hairpin
Tat44-60 WT [7] = molecular target: T3, Tat44-60 WT; experiment: crystal structure; peptide soaked into TAR-I crystals, 2.7 A; FP: 25 mM Tris-HCl pH 7.5, 50 mM NaCl, 50 mM KCl, 2 mM MgCl2, 21 C, 5 nM RNA; ITC: 25 mM Tris-HCl pH 7.5, 100 mM NaCl, 1 mM MgCl2, 25 C; details: hairpin, GAAA tetraloop
PKR dsRBMs [8] = molecular target: T1, PKR dsRBMs; experiment: 2AP fluorescence lifetime; details: protein: recombinant; tags: tag cleaved by TEV; label: 2AP; hairpin
Tat44-60 WT [9] = molecular target: T3, Tat44-60 WT; experiment: 2AP fluorescence lifetime; details: label: 2AP; hairpin
NC (nucleocapsid) = NC (nucleocapsid) (HIV-1, UniProt P04591 378-432); experiment: 2AP fluorescence lifetime; details: protein: recombinant; tags: MBP tag cleaved by PreScission; label: 2AP; hairpin
[10] = label: 3' FAM in FP, none in ITC and SEC-MALS, blunt 2 G-C end, bulges C5, A17, U23-C24-U25

T1 sequence (P19525 9-167): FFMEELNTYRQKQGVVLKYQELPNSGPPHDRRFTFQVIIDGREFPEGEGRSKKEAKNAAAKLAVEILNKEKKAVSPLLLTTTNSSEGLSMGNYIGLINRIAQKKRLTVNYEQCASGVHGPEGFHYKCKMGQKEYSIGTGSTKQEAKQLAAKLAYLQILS
T2 sequence (P19525 whole entry): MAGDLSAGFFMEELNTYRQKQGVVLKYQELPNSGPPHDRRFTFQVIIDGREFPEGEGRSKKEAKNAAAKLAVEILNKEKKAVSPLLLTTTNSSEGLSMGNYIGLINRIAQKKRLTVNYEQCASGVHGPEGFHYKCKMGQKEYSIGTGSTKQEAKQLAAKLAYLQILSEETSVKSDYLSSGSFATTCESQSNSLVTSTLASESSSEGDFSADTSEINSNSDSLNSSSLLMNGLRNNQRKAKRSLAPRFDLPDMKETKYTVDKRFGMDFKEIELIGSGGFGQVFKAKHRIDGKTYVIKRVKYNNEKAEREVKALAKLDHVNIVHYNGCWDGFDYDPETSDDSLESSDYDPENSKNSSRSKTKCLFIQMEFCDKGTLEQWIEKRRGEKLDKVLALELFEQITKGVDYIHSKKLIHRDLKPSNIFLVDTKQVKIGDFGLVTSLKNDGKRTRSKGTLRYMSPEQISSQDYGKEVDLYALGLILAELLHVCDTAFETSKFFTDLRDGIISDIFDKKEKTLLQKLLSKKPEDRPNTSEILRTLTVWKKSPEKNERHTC
Chain of PKR dsRBMs (Homo sapiens) (P19525 9-167): as the sequence (P19525 9-167) above
Chain of PKR (unphosphorylated) (Homo sapiens) (P19525 whole entry): as the sequence (P19525 whole entry) above

Molecule: TARΔ23-39
- Kd [1]: 54 nM
- Kd [2]: 190 nM

Molecule: VA-I RNA
- Kd [1]: 40 nM
- Kd [2]: 220 nM

B1: TAR2GC (WT) (structured_RNA)
RNA: GGUCUCUCUGGUUAGACCAGAUCUGAGCCUGGGAGCUCUCUGGCUAACUAGGGAACC
- Kd (PKR dsRBMs [3]; [10]): 120 ± 10 nM
- Kd (PKR (unphosphorylated) [4]; [10]): 35 ± 5 nM
- Kd (Tat44-60 WT [5]): 160 ± 100 nM

Molecule: CUCUGGUUAGACCAGAUCUGAGCCUGGGAGCUCUCUGGCUAACUAGGG (structured_RNA) [TARΔ4bp]
- Kd (PKR dsRBMs [3]; label: 3' FAM): 290 ± 20 nM
- Kd (PKR (unphosphorylated) [4]; label: 3' FAM): 50 ± 3 nM

Molecule: GUUAGACCAGAUCUGAGCCUGGGAGCUCUCUGGCUAAC (structured_RNA) [TARΔ9bp]
- Kd (PKR dsRBMs [3]; label: 3' FAM): 1900 ± 700 nM
- Kd (PKR (unphosphorylated) [4]; label: 3' FAM): 130 ± 40 nM

Molecule: CCAGAUCUGAGCCUGGGAGCUCUCUGG (structured_RNA) [TARΔ14bp]
- Kd (PKR dsRBMs [3]; label: 3' FAM): 2280 ± 700 nM
- Kd (PKR (unphosphorylated) [4]; label: 3' FAM): 1230 ± 1000 nM

B2: TAR A48U/C49G/U50A (structured_RNA)
RNA: GGUCUCUCUGGUUAGACCAGAUCUGAGCCUGGGAGCUCUCUGGCUAUGAAGGGAACC
- Kd (PKR dsRBMs [3]; label: 3' FAM): 360 ± 120 nM
- Ka (PKR (unphosphorylated) [6]): 7.02 ± 0.11 log10 M-1

B3: TAR GAAA (TAR-I) (structured_RNA)
RNA: GGUCUCUCUGGUUAGACCAGAUCUGAGCCGAAAAGCUCUCUGGCUAACUAGGGAACC
- binding result (Tat44-60 WT [7]): binds

B4: 2AP3 TAR2GC C57U (structured_RNA)
RNA: GAUCUCUCUGGUUAGACCAGAUCUGAGCCUGGGAGCUCUCUGGCUAACUAGGGAAUC
modifications: 2-aminopurine at G3; C57U
- binding result (PKR dsRBMs [8]): binds
- binding result (Tat44-60 WT [9]): binds
- binding result (NC (nucleocapsid)): binds

B5: 2AP17 TAR2GC (structured_RNA)
RNA: GGUCUCUCUGGUUAGACCAGAUCUGAGCCUGGGAGCUCUCUGGCUAACUAGGGAACC
modifications: 2-aminopurine at A17
- binding result (Tat44-60 WT [9]): binds
- binding result (NC (nucleocapsid)): binds

B6: 2AP20 TAR2GC (structured_RNA)
RNA: GGUCUCUCUGGUUAGACCAGAUCUGAGCCUGGGAGCUCUCUGGCUAACUAGGGAACC
modifications: 2-aminopurine at A20
- binding result (PKR dsRBMs [8]): binds
- binding result (Tat44-60 WT [9]): binds
- binding result (NC (nucleocapsid)): binds

B7: 2AP24 TAR2GC (structured_RNA)
RNA: GGUCUCUCUGGUUAGACCAGAUAUGAGCCUGGGAGCUCUCUGGCUAACUAGGGAACC
modifications: 2-aminopurine at C24
- binding result (PKR dsRBMs [8]): binds
- binding result (Tat44-60 WT [9]): binds
- binding result (NC (nucleocapsid)): binds
